Like-named read-outs stand apart in the source and are kept apart here.
Key:
pro-uPA [1] = biological target: T1, pro-uPA (UniProt P00749 21-431, limits assumed, Eu3+-label in the cell binding competition assay); experiment: soluble receptor titrated on immobilized pro-uPA; detection 13F6 + Eu3+ anti-mouse, time-resolved fluorescence
T1 construct: also called immobilized uPA
Experimental: The bound material was detected by measuring time-resolved fluorescence intensity. Specific binding was calculated by subtracting the non-specific binding measured in uncoated wells incubated with identical samples. The data shown are means±SD from a representative experiment. The binding curve, equilibrium dissociation constant (Kd, in nanomolar units) and maximum binding capacity (Bmax, in CPS units (counts per second)) were calculated by non-linear regression (four-parameter fit) using the Prism 5.0 software suite.

pro-uPA [2] = biological target: T1, pro-uPA; experiment: as above; remark: listed apart in the source
Experimental: The bound material was detected by measuring time-resolved fluorescence intensity. Specific binding was calculated by subtracting the non-specific binding measured in uncoated wells incubated with identical samples. […] The binding curve and dissociation constant (Kd) were calculated by non-linear regression (four-parameter fit) using the Prism 5.0 software suite.
ON. […] The Eu³⁺-label was detected by measuring time-resolved fluorescence intensity using an Envision Xcite plate reader (Perkin Elmer Corp.) employing the DELFIA label protocol. To calculate the specific binding, non-specific binding measured in uncoated wells, incubated with identical samples, was subtracted from the total binding measured in coated wells.

wild-type human uPAR = wild-type human uPAR (human, UniProt Q03405 23-305, GPI-anchor on Gly283); experiment: cell-based or functional assay
vitronectin = biological target: T2, vitronectin (UniProt P04004 20-478, limits assumed); experiment: soluble receptor titrated on immobilized VN without pro-uPA; detection 13F6 + Eu3+ anti-mouse, time-resolved fluorescence
T2 construct: also called VN; immobilized VN
T2 sequence (P04004 20-478 limits assumed): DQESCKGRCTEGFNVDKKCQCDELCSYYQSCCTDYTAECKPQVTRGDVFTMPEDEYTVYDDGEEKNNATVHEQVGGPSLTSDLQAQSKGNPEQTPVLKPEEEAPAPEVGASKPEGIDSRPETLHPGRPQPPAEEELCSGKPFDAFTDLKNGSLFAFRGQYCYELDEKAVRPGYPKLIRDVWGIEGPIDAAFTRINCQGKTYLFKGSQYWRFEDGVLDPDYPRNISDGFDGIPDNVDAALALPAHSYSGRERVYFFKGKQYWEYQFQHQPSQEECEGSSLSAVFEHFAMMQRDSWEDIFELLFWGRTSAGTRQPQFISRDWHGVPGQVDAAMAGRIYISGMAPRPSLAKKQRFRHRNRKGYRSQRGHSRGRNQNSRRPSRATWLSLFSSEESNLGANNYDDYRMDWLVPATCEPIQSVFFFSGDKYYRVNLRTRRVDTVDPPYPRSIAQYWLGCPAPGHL
Experimental: The data are from a single experiment and presented as means±SD. The binding curve and Kd were calculated by non-linear regression. […] The data are from a single experiment and are represented as means±SD. The binding curve and Kd were calculated by non-linear regression.

Binder | Kd (pro-uPA [1]) [nM] | Kd (pro-uPA [2]) [nM] | % max inhibition (pro-uPA pre-treat.) (wild-type human uPAR) [%] | % max inhibition (veh. pre-treat.) (wild-type human uPAR) [%] | Kd (vitronectin) [nM]
uPARmyc (receptor, monomeric control receptor; used as concentrated CHO conditioned medium without purification; also called soluble monomeric form of uPAR with a C-terminal myc-tag) LRCMQCKTNGDCRVEECALGQDLCRTTIVRLWEEGEELELVEKSCTHSEKTNRTLSYRTGLKITSLTEVVCGLDLCNQGNSGRAVTYSRSRYLECISCGSSDMSCERGRHQSLQCRSPEEQCLDVVTHWIQEGEEGRPKDDRHLRGCGYLPGCPGSNGFHNNDTFHFLKCCNTTKCNEGPILELENLPQNGRQCYSCKGNSTHGCSSEETFLIDCRGPMNQCLVATGTHEPKNQSYMVRGCATASMCQHAHLGDAFSMNHIDVSCCTKSGCNHPGGEQKLISEEDL | 11 | 1.1 | – | – | –
13D11 (antibody, V domains shown) VH: ELMKPGASVKLSCKATGYTFTDYWIEWVKQRPGHGLEWIGEILPGRDSTDYNENFKGKATFTADTSSNTAYMQLSSLTTEDSAIYYCARDYYGHISNWYFDVWGTGTTVTVS VL: SLSASLGERVSLTCRASQDIGSSLNWLQQEPDGTIKRLIYATSSLDSGVPKRFSGSRSGSDYSLTISSLESVDFVVYYCLQYATSPYTFGGGTKLEIKR | – | – | 82 | 38 | –
AL6 (antibody, V domains shown) VH: ELMKPGASVKLSCKATGYSFTGYWIEWVKQRPGHGLEWIGEILPGSDRTNYNEKFKGKATFTADTSSNTAYMQLSSLTTEDSAIYYCARDDYDRGLYIMDYWGQGTSVTVS VL: SLSASLGERVSLTCRASQDIGTSLNWLQQEPDGTIRRLIYATSSLPPGVPKRFSGSRSGSDYSLTISSLESEDFVNYYCLQYATSPYTFGGGTKLEIKR | – | – | < 20 | < 20 | –
19.10 (antibody, V domains shown) VH: ELVKPGASVKLSCKATGYTFTVYWMEWVRQRPGHGLEWIGEILPGSGRTNYNERFKGKATFTADTSSNTAYMQLSSLTTEDSAIYYCARDYSGDTSTGYFDVWGTGTTVTVS VL: SLSASLGERVSLTCRASQDIGSGLSWLQQEPDGTIKRLIYATSSLDSGVPKRFSGSRSGSDYSLTISSLESEDFVDYYCLQYATSPYTFGGGTKLEIKR | – | – | 79 | 67 | –
^GFDuPARmyc (receptor, used as concentrated CHO conditioned medium; also called soluble GFDuPAR) SNELHQVPSNCDCLNGGTCVSNKYFSNIHWCNCPKKFGGQHCEIDKSKGGAGAAGGLRCMQCKTNGDCRVEECALGQDLCRTTIVRLWEEGEELELVEKSCTHSEKTNRTLSYRTGLKITSLTEVVCGLDLCNQGNSGRAVTYSRSRYLECISCGSSDMSCERGRHQSLQCRSPEEQCLDVVTHWIQEGEEGRPKDDRHLRGCGYLPGCPGSNGFHNNDTFHFLKCCNTTKCNEGPILELENLPQNGRQCYSCKGNSTHGCSSEETFLIDCRGPMNQCLVATGTHEPKNQSYMVRGCATASMCQHAHLGDAFSMNHIDVSCCTKSGCNHPGGEQKLISEEDL | – | 28 | – | – | 0.62
13F6 (antibody, mouse IgG1, V domains shown) VH: ELVKPGASVELSCKASGYTFTSYWMNWVKQRPGRGLEWIGRIAPNSGGTQYSGKFKTKATLTVDKSSSTAYMQLSSLTSEDSAVYYCARGDYFGHFDYWGQGTTLTVS VL: SLSASLGGKVTITCKASQDINNYIAWYQHKPGKGPRLLIHYTSILQPGIPSRFSGSGSGRDYSFSISNLEPEDIATYYCLQCDNLLTFGAGTKLELK | – | – | < 20 | < 20 | –
BE18 (antibody, mouse IgG1, V domains shown) VH: ELVKPGASVKIICKASGYIFTDYNMDWVKQSHGKSLEWIGEINPNNGDTIYNQNFKGKATLTVDKSSSTAHMALRSLTSEDTAVYYCTRKGGLRAWFVYWGQGTLVTVS VL: MSASPGEKVTMTCRASSSVSSSYLHWYQQKSGASPKVWIYSTSNLASGVPARFSGSGSGTSYSLTISSVEAEDAATYYCQQYSGYPLTFGSGTKLEIQ | – | – | < 20 | 37 | –

Reference: patent US20140161803A1 (IFOM FONDAZIONE ISTITUO FIRC DI ONCOLOGIA MOLECOLARE, published 2014)
